Patent US20160200799A1
Substitutions are numbered along the chain they refer to.

B1: Group 55 representative clone F083-305, Fab-cp3-type antibody (Fab, V domains shown)
VH: EVQLVESGAEVKKPGSSVKVSCKASGSIFSNYAISWVRQAPGQGLEWMGGIVPMFGTTRFAQKFQGRVTITADESRSTAYMELNNLISEDTAVYYCARAPLIYNWYFDLWGRGTLVTVSS
VL: EIVLTQSPSFVSASVGDRVSITCRASQGISSWLAWYQQKPGKAPRLLIYGASNLQSGVPSRFSGSGSGTDYTLTINSLQPEDFATYYCQQARTFPVTFGQGTKLEIK
B2: Group 56 representative clone F083-318, Fab-cp3-type antibody (Fab, V domains shown)
VH: B1 VH with E6Q, K23Q, S35N, M54I, V68L, S75P, F107Y
VL: EIVLTQSPSSLSASVGDRVTITCRASQGISNYLAWYQQKPGKVPKLLIYAASTLQSGVPSRFSGSGSGTDFTLTISSLQPEDVATYYCQKYNSAPHTFGPGTKVDIK
B3: Group 58 representative clone F083-307, Fab-cp3-type antibody (Fab, V domains shown)
VH: QVQLQQSGADVKKPGSSVKVSCKASGGTFGNYAISWVRQAPGQGLEWMGGITPIFGPANYAQRFQGRVTISADISTRTAYMELSSLRSEDTAIYYCARHPTYYFGSAMEYWGQGTLVTVSS
VL: SYELTQPPSVSVAPGQTATITCGGDRIGTGPVHWYQQRPGRAPVLIIYGSTHRPSGIPERFSGSKSVNTATLSISGVGVGDEADYYCQVWDTSTAQPIVFGGGTKLTVLS
B4: Group 62 representative clone F083-349, Fab-cp3-type antibody (Fab, V domains shown)
VH: QVQLVQSGAEVRKPGSSVKVSCKASGVIFIKFAISWVRQAPGQGLEWMGGIIPMFGTTNYAQKFQGRVTITADGSTNTVYMELSSLTSEDTAVYYCAKEEGYYYGSGPLDSWGQGTLVTVSS
VL: DIVMTQSPDFLSVSLGERVTINCKSSQTVLNRSNNKNYLAWYQKKPGQPPRLLLYWSSTRESGVPDRFSGSGSETDFALTITNLQAEDLAVYFCQQFYDMPVTFGGGTKLEIK
B5: Group 38 representative clone F082-338, Fab-cp3-type antibody (Fab, V domains shown)
VH: QVQLQESGAEVKKPGSSVKVSCKASGGPFRSHAISWVRQAAGQGLEWMGGITAVFGTANYAQKFQGRVTITADESTNIVSMELSSLRSEDTAIYYCARSLGYHTQYNGMDVWGQGTTVTVSS
VL: DVVMTQSPSSVSASVGDRVTITCRASQGISSWLAWYQQKPGKAPKLLIYAASSLQSGVPSRFSGSGSGTDFTLTISSLQPEDFATYYCQQANSFPITFGQGTRLEIK
B6: Group 42 representative clone F083-249, Fab-cp3-type antibody (Fab, V domains shown)
VH: QVQLVQSGSEVKKPGSSVKVSCKASGVTFSSYAISWVRQAPGQGLEWMGGISPMFGTTRYAQKFQGRVTITADESTRTGFMELSSLRSGDTAVYYCARSPTYYPGALDMWGQGTTVTVSS
VL: DVVMTQSPSLLSASVGDRVTITCRASQAIANFVSWFQQKPGEAPKSLIHAASTLQGGVPPRFSGSGYGAVFTLTITNLQPEDFATYFCQQYNSLPFTFGPGTDVEVR
B7: Group 64 representative clone F083-301, Fab-cp3-type antibody (Fab, V domains shown)
VH: QVQLVQSGAEVKKPGSSVKVSCKASGGIFNSNAISWVRQAPGQGLEWMGGIIGIFGTANYAQKFQGRVTIAADQSTNTVFMELSSLTSEDTAVYFCARSRGYSFGYGTDYFDYWGQGTLVTVSS
VL: DIVMTQSPSTLSASVGDRVTITCRASQSISSWLAWYQQAPGKAPKLLIYEASKLQSGVPSRFSATGSGTEFTLTIASLQPEDFAIYYCQHYEAYPFSFGPGTKLDVK
B8: Group 36 representative clone F082-243, Fab-PP-type antibody (Fab, V domains shown)
VH: QVQLQQSGAEVKKPGSSVKVSCKASGGIFRKNAISWVRQAPGQGLEWMGGIIAIFGTANYAQKFQGRVTITADDSTNTVYMELTSLRYEDTAVYYCARGPNYYENYFDFWGQGTLVTVSS
VL: EIVLTQSPSSLSASLRDTVTITCRTSQAITNYLAWYQQRPGKAPKLLIYAASVLQSGVPSRFSGSGSGTDFTLTISSLQPEDFATYYCQKYDSAPYTFGQGTKLEIK
B9: Group 51 representative clone F083-302, Fab-cp3-type antibody (Fab, V domains shown)
VH: QVQLVQSGAEVKKPGSSVKVSCEASGATFSSNAFSWVRQAPGQGPEWMGGIITMFRKAEYAQKFQGRVTITAGELGSTAYMEVRSLTFEDTAVYYCARHSGYHLIGYFDSWGQGTLVTVSS
VL: QSVLTQPPSVSAAPGQKVTISCSGTTSNIGNNYVSWYQQLPGAAPKLLIYDNNKRPSGIPDRFSGSKSDTSATLGITGLQTGDEADYYCGTWVSSLSVWVFGGGTKLTVLG
B10: Group 43 representative clone F081-007, Fab-cp3-type antibody (Fab, V domains shown)
VH: QVQLQQSGAEVKKPGSSVKVSCKASGGIFRKNAISWVRQAPGQGLEWMGGISAIFGTANYAQKFQGRVTITADESSNTVYMDLSRLRSEDTAIYYCASHPTYHFDKSGYRFDSWGQGTLVTVSS
VL: B9 VL with T25S, T26S, A43T, D69G, V93D, V98A, W99G
B11: Group 63 representative clone F083-336, Fab-cp3-type antibody (Fab, V domains shown)
VH: QVQLQQSGAEVKQPGSSVKVSCKASGGIFRSNAISWVRQAPGQGLEWMGGIVALFGTANYAQKFQGRVTITADESTSTVYMELSSLRSEDTARYYCARNSGYHISGFYLDYWGQGTLVTVSS
VL: B2 VL with K39R, A50T, Q55L, S65G, F71Y, K90E, N92K, A94V, H96L, D105E
B12: Group 57 representative clone F083-103, Fab-cp3-type antibody (Fab, V domains shown)
VH: QVQLQQSGADVKKAGSSVKVSCKASGRTFGNYAISWVRQAPGQGLEWMGGITPIFGAANYAQKFQGRVTISADLSTRMVYMDLSSLRSDDTAFYYCAGHPTYHYGSAMDYWGQGTLVTVSS
VL: QSVLTQPPSVSAAPGQKVTITCSGSSSNIGNNYVSWYQQLPGTAPKLLISEGSNRPSGIPDRFSGSKSGTSATLGITGLQTGDEATYYCATWDDSLSVVLFGGGTRLTVLS
B13: Group 80 representative clone F083-373, Fab-cp3-type antibody (Fab, V domains shown)
VH: B12 VH with Q5V, A14P, K19R, R77T, H103Y, A107P
VL: EIVLTQSPSSLSASVGDRVTITCRASQSIATYLNWYQQKPGKAPNLLIYAASNLQSGVPSRFSGSGSGTDFTLTISSLQPEDFATYVCLQSYSATLTFGGGTKVEIK
B14: Group 59 representative clone F083-351, Fab-cp3-type antibody (Fab, V domains shown)
VH: B12 VH with Q5V, T101M
VL: QSVLTQPPSASGTPGQRVSISCFGSRSNVGSSSVNWYQQLPGRAPKLLIQRNDQRPSGVPDRFSGSKSGTSASLAISGLQSDDESTYYCAAWDDSVKSVVFGGGTQLTVLG
B15: Group 2 representative clone F082-220, Fab-PP-type antibody (Fab, V domains shown)
VH: QVQLVQSGAEVKKPGSSVKVSCKASGGIFRSNAVSWVRQAPGQGLEWMGGIIAIFGTPKYAQKFQGRVTITADESTSTVYMELSGLRYEDTAVYYCARGPNYYESYFDYWGQGTLVTVSS
VL: DIVMTQSPPSLSASVGDRVTITCRASQGISNYLAWYQQKPGKAPKLLIFGASTLHSGVSSRFSGSGSGPDFTLTISSLQPEDAATYYCQKYHSAPLTFGGGTKVEMK

Experiments:
[1] = target: Influenza virus A/New Caledonia/20/1999 (H1N1) (Influenza A virus A/New Caledonia/20/1999 (H1N1)); test: ELISA on coated viral particles
[2] = target: Influenza virus A/Brisbane/59/2007 (H1N1) (Influenza A virus A/Brisbane/59/2007 (H1N1)); test: ELISA on coated viral particles
[3] = target: Influenza virus A/California/7/2009pdm (H1N1pdm) (Influenza A virus A/California/7/2009pdm (H1N1pdm)); test: ELISA on coated viral particles
[4] = target: Influenza virus A/Panama/2007/1999 (H3N2) (Influenza A virus A/Panama/2007/1999 (H3N2)); test: ELISA on coated viral particles
[5] = target: Influenza virus A/Brisbane/59/2007 (H1N1) (Influenza A virus A/Brisbane/59/2007 (H1N1)); test: cell-based or functional assay
[6] = target: Influenza virus A/Indonesia/5/2005/PR8-IBCDC-RG2 (H5N1) (Influenza A virus A/Indonesia/5/2005/PR8-IBCDC-RG2 (H5N1)); test: cell-based or functional assay
[7] = target: Influenza virus A/California/7/2009pdm (H1N1pdm) (Influenza A virus A/California/7/2009pdm (H1N1pdm)); test: cell-based or functional assay
[8] = target: Influenza virus A/Suita/1/2009pdm (H1N1 2009 pandemic) (Influenza A virus A/Suita/1/2009pdm (H1N1pdm)); test: cell-based or functional assay
[9] = target: Influenza virus A/Panama/2007/1999 (H3N2) (Influenza A virus A/Panama/2007/1999 (H3N2)); test: cell-based or functional assay

Row | Binder | Binding activity (absorbance at 492 nm) [1] | Binding activity (absorbance at 492 nm) [2] | Binding activity (absorbance at 492 nm) [3] | Binding activity (absorbance at 492 nm) [4] | further results
1 | B1 | 3.07 | 2.88 | 1.29 | 0.15 | 
2 | B2 | 3.01 | 2.85 | 0.71 | 0.16 | 
3 | B3 | 3.3 | 3.04 | 2.37 | 0.19 | 
4 | B4 | 3.17 | 2.93 | 2.79 | 0.15 | 
5 | B5 | 3.01 | 2.93 | 2.82 | 0.13 | 
6 | B6 | 3.13 | 3.02 | 2.38 | 1.15 | 
7 | B7 | 1.34 | 1.44 | 0.46 | 0.16 | 
8 | B8 |  |  |  |  | HI activity [5]: > 160 µg/mL; Neutralizing activity (%) at 100 µg/ml [5]: 84.2%; Neutralizing activity (%) at 250 µg/ml [5]: 94.1%; Neutralizing activity (%) at 100 µg/ml [6]: 50.6%; Neutralizing activity (%) at 250 µg/ml [6]: 52.9%; HI activity [7]: > 160 µg/mL; Neutralizing activity (%) at 100 µg/ml [8]: 97.7%; Neutralizing activity (%) at 250 µg/ml [8]: 85.9%; Neutralizing activity (%) at 100 µg/ml [9]: 7.5%; Neutralizing activity (%) at 250 µg/ml [9]: -2.7%
9 | B9 | 1.92 | 2 | 1.55 | 0.23 | 
10 | B10 | 2.84 | 2.72 | 2.33 | 0.14 | 
11 | B11 | 1.61 | 1.89 | 1.56 | 0.15 | 
12 | B12 | 2.43 | 2.39 | 1.82 | 0.16 | 
13 | B13 | 1.39 | 1.31 | 0.17 | 0.13 | 
14 | B14 | 3.21 | 3.09 | 2.62 | 0.21 | 
15 | B15 |  |  |  |  | HI activity [5]: > 160 µg/mL; Neutralizing activity (%) at 100 µg/ml [5]: 100%; Neutralizing activity (%) at 250 µg/ml [5]: 100%; Neutralizing activity (%) at 100 µg/ml [6]: 90.6%; Neutralizing activity (%) at 250 µg/ml [6]: 97.1%; HI activity [7]: > 160 µg/mL; Neutralizing activity (%) at 100 µg/ml [8]: 85.3%; Neutralizing activity (%) at 250 µg/ml [8]: 97.7%; Neutralizing activity (%) at 100 µg/ml [9]: 3.4%; Neutralizing activity (%) at 250 µg/ml [9]: 34.2%
